From patent US20130129746A1 (GlaxoSmithKline, published 2013)
Changes are numbered by the printed parent chain. In names and notes the source's numbering stands.

B1: DOM7h-11-57 (other)
VL: DIQMTQSPSSLSASVGDRVTITCRASRPIGTMLSWYQQKPGKAPKLLILAFSRLQSGVPSRFSGSGSGTDFTLTISNLQPEDFATYYCAQAGTHPTTFGQGTKVEIKW
notes: Vk dAb
B2: DOM7h-11-56 (other)
VL: B1 VL with T22S, N77S
notes: Vk dAb
B3: DOM7h-11-69 (other)
VL: B1 VL with N77S, T93V, W108R
notes: Vk dAb
B4: DOM7h-11-79 (other)
VL: B1 VL with N77S, A91T
notes: Vk dAb
B5: DOM7h-11-68 (other)
VL: B1 VL with K42E, N77S, A91T
notes: Vk dAb
B6: DOM7h-11-67 (other)
VL: B1 VL with N77S, P95H, I106N
notes: Vk dAb
B7: DOM7h-11-80 (other)
VL: B1 VL with T22F, N77S
notes: Vk dAb
B8: DOM7h-11-65 (other)
VL: B1 VL with N77S, F83V
notes: Vk dAb
B9: DOM7h-11-19 (other)
VL: B1 VL with A50F, F51G, N77S, A91T, W108R
B10: DOM7h-11-18 (other)
VL: B1 VL with L49W, A50F, F51G, N77S, Y87H, W108R
B11: DOM7h-11-12 (other)
VL: B1 VL with A50F, F51G, N77S, W108R
B12: DOM7h-14-10 (other)
VL: DIQMTQSPSSLSASVGDRVTITCRASQWIGSQLSWYQQKPGKAPKLLIMWRSSLQSGVPSRFSGSGSGTDFTLTISSLQPEDFATYYCAQGLRHPKTFGQGTKVEIKR
notes: Vk dAb (AlbudAb)
B13: DOM7h-14-19 (other)
VL: B12 VL with T22S, K42E, L92A, R93A, H94L, K96R
notes: Vk dAb (AlbudAb)
B14: DOM7h-14-18 (other)
VL: B12 VL with R93M, H94K, K96M
notes: Vk dAb (AlbudAb)
B15: DOM7h-11-88 (other)
VL: B1 VL with N77S, P95H, I106N, W108R
notes: Vk dAb; also called DOM7h-11-67 W108R
B16: DOM7h-11-90 (other)
VL: B1 VL with W108R
notes: Vk dAb; also called DOM7h-11-57 W108R/N106I
B17: DOM7h-11-86 (other)
VL: B1 VL with N77S, F83V, W108R
notes: Vk dAb; also called DOM7h-11-65 W108R/N106I
B18: DOM7h-11-87 (other)
VL: B1 VL with N77S, P95H, W108R
notes: Vk dAb; also called DOM7h-11-67 W108R/N106I

Molecular target: T1, mouse serum albumin (mouse, UniProt P07724 25-608)
T1 construct: mature; purified protein on CM5 chips for BIAcore; also called MSA; mouse SA
T1 sequence (P07724 25-608): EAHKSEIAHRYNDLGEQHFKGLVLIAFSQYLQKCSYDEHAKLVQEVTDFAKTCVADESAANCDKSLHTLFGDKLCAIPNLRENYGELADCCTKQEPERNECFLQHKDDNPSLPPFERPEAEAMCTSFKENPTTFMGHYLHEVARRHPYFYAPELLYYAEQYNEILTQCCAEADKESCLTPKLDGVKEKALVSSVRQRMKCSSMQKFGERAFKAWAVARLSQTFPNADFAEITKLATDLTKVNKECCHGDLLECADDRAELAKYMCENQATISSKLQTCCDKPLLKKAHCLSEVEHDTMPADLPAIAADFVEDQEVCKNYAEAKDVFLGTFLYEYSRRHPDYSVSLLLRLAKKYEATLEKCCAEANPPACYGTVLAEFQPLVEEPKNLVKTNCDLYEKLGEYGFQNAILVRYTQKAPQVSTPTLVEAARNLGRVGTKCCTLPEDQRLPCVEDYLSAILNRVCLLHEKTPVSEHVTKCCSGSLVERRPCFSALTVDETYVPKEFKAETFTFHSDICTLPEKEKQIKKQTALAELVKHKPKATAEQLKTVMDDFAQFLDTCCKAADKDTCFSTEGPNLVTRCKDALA
Assay: BIAcore SPR
Source text: (§1) MSA antigen was obtained from Sigma (essentially fatty acid free, ˜99% (agarose gel electrophoresis), lyophilized powder Cat. No. A3559) and CSA was purified from Cynomolgus serum albumin using prometic blue resin (Amersham).

Binder	Kd
B1	10.9 nM
B2	7.6 nM
B3	10 nM
B4	6.9 nM
B5	15.5 nM
B6	6.7 nM
B7	10.9 nM
B8	9.4 nM

Molecular target: T2, Human Serum Albumin (human, UniProt P02768 25-609)
T2 construct: mature; purified protein on CM5 chips for BIAcore; also called HSA; human SA
Assay: BIAcore SPR
Source text: as §1

Binder	Ka	Kd	kon
B1	5.52e+08 M⁻¹	1.8 nM	1.22e+06 M⁻¹ s⁻¹
B2	–	1.6 nM	–
B3	–	3.2 nM	–
B4	–	5.9 nM	–
B5	–	33.5 nM	–
B6	1.12e+09 M⁻¹	0.9 nM	1.75e+06 M⁻¹ s⁻¹
B7	–	2.1 nM	–
B8	5.52e+08 M⁻¹	1.8 nM	1.3e+06 M⁻¹ s⁻¹

Molecular target: T3, Cynomolgus monkey Serum Albumin (Cynomolgus monkey, UniProt A2V9Z4 25-608)
T3 construct: mature; purified protein on CM5 chips for BIAcore; also called CSA; cyno SA
T3 sequence (A2V9Z4 25-608): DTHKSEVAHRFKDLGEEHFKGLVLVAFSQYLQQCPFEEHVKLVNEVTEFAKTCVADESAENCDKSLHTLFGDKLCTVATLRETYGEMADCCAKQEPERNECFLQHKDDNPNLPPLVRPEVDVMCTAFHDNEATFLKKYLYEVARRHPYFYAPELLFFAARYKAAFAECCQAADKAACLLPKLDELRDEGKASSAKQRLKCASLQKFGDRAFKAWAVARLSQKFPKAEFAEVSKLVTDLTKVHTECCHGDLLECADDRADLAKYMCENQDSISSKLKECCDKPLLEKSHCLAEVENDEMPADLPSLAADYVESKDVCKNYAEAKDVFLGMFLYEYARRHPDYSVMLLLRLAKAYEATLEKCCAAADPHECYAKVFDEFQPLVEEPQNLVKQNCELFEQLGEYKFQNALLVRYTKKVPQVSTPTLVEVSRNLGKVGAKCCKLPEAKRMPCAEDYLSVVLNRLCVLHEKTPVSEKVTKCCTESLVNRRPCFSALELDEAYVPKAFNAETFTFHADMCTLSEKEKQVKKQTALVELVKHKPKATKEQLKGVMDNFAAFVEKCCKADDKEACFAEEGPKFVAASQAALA
Assay: BIAcore SPR
Source text: as §1

Binder	Ka	Kd	kon
B1	1.63e+08 M⁻¹	6.1 nM	1.34e+06 M⁻¹ s⁻¹
B2	–	5.2 nM	–
B3	–	5.9 nM	–
B4	–	11.7 nM	–
B5	–	37.9 nM	–
B6	3.69e+08 M⁻¹	2.7 nM	2.03e+06 M⁻¹ s⁻¹
B7	–	5.5 nM	–
B8	6.35e+07 M⁻¹	15.7 nM	1.19e+06 M⁻¹ s⁻¹

Molecular target: T4, Rat Serum Albumin (rat, UniProt P02770 25-608)
T4 construct: mature; purified protein on CM5 chips for BIAcore; also called RSA; rat SA
T4 sequence (P02770 25-608): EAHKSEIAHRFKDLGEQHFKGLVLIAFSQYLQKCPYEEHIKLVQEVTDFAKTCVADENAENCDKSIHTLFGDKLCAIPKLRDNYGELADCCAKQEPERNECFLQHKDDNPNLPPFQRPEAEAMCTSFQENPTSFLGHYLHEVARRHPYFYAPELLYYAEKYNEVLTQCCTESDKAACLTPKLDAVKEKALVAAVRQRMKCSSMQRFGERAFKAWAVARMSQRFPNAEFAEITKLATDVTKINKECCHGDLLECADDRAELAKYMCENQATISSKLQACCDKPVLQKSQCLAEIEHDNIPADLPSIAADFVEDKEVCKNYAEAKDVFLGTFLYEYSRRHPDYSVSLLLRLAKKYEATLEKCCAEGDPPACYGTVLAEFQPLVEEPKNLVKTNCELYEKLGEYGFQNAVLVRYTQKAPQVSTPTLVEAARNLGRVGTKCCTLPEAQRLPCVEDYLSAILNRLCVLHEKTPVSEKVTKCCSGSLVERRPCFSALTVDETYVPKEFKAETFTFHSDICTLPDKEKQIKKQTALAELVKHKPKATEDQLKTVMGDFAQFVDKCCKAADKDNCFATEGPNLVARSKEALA
Assay: BIAcore SPR
Source text: as §1

Binder	Ka	Kd	kon
B1	3.42e+07 M⁻¹	29.2 nM	566000 M⁻¹ s⁻¹
B2	–	23.4 nM	–
B3	–	27.1 nM	–
B4	–	11.1 nM	–
B5	–	25.3 nM	–
B6	8.6e+07 M⁻¹	11.6 nM	1.33e+06 M⁻¹ s⁻¹
B7	–	24.1 nM	–
B8	4.06e+07 M⁻¹	24.6 nM	780000 M⁻¹ s⁻¹

Molecular target: T1, mouse serum albumin
Assay: BIAcore SPR, second independent experiment;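 note: purified domain antibodies run as analytes at 50 nM, 500 nM and 1 µM over HSA, CSA, MSA and RSA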
Procedure: (§2) Binding to HSA, CSA, MSA and RSA by BIAcore was confirmed using purified protein at 3 concentrations 1 μM, 500 nM and 50 nM.

Binder	Kd	koff	kon
B9	18000 nM	0.088 s⁻¹	4900 M⁻¹ s⁻¹
B10	1600 nM	0.0623 s⁻¹	40000 M⁻¹ s⁻¹

Molecular target: T2, Human Serum Albumin
Assay: BIAcore SPR, second independent experiment;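 note: purified domain antibodies run as analytes at 50 nM, 500 nM and 1 µM over HSA, CSA, MSA and RSA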
Procedure: as §2

Binder	Kd	koff	kon
B9	38000 nM	0.209 s⁻¹	5400 M⁻¹ s⁻¹
B10	32000 nM	0.27 s⁻¹	8390 M⁻¹ s⁻¹

Molecular target: T3, Cynomolgus monkey Serum Albumin
Assay: BIAcore SPR, second independent experiment;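 note: purified domain antibodies run as analytes at 50 nM, 500 nM and 1 µM over HSA, CSA, MSA and RSA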
Procedure: as §2

Binder	Kd	koff	kon
B9	375000 nM	0.62 s⁻¹	1700 M⁻¹ s⁻¹
B10	65000 nM	0.48 s⁻¹	7300 M⁻¹ s⁻¹

Molecular target: T4, Rat Serum Albumin
Assay: BIAcore SPR, second independent experiment;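 note: purified domain antibodies run as analytes at 50 nM, 500 nM and 1 µM over HSA, CSA, MSA and RSA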
Procedure: as §2

Binder	Kd	koff	kon
B9	17000 nM	0.14 s⁻¹	8100 M⁻¹ s⁻¹
B10	29000 nM	0.37 s⁻¹	13000 M⁻¹ s⁻¹

Molecular target: T1, mouse serum albumin
Assay: BIAcore SPR
Remark: another data set of the same source
Procedure: as §2

Binder	Kd	koff	kon
B11	130 nM	0.189 s⁻¹	1.53e+06 M⁻¹ s⁻¹
B9	100 nM	0.037 s⁻¹	1.4e+06 M⁻¹ s⁻¹
B10	150 nM	0.024 s⁻¹	440000 M⁻¹ s⁻¹
B12	30 nM	0.0341 s⁻¹	1.29e+06 M⁻¹ s⁻¹
B13	60 nM	0.0576 s⁻¹	1.16e+06 M⁻¹ s⁻¹
B14	65 nM	0.0924 s⁻¹	2.28e+06 M⁻¹ s⁻¹

Molecular target: T2, Human Serum Albumin
Assay: BIAcore SPR
Remark: another data set of the same source
Procedure: as §2

Binder	Kd	koff	kon
B11	350 nM	0.413 s⁻¹	1.26e+06 M⁻¹ s⁻¹
B9	65 nM	0.11 s⁻¹	1.8e+06 M⁻¹ s⁻¹
B10	36 nM	0.051 s⁻¹	3.4e+06 M⁻¹ s⁻¹
B12	12 nM	0.0139 s⁻¹	1.5e+06 M⁻¹ s⁻¹
B13	70 nM	0.0525 s⁻¹	826000 M⁻¹ s⁻¹
B14	280 nM	0.0339 s⁻¹	189000 M⁻¹ s⁻¹

Molecular target: T3, Cynomolgus monkey Serum Albumin
Assay: BIAcore SPR
Remark: another data set of the same source
Procedure: as §2

Binder	Kd	koff	kon
B11	≥ 6000 nM	–	–
B9	≥ 10000 nM	–	–
B10	10000 nM	1.36 s⁻¹	225000 M⁻¹ s⁻¹
B12	9 nM	0.0115 s⁻¹	1.6e+06 M⁻¹ s⁻¹
B13	225 nM	0.156 s⁻¹	700000 M⁻¹ s⁻¹
B14	180 nM	0.105 s⁻¹	630000 M⁻¹ s⁻¹

Molecular target: T4, Rat Serum Albumin
Assay: BIAcore SPR
Remark: another data set of the same source
Procedure: as §2

Binder	Kd	koff	kon
B11	200 nM	0.522 s⁻¹	2.76e+06 M⁻¹ s⁻¹
B9	28 nM	0.091 s⁻¹	980000 M⁻¹ s⁻¹
B10	80 nM	0.06 s⁻¹	1.64e+06 M⁻¹ s⁻¹
B12	4 nM	0.00964 s⁻¹	4.57e+06 M⁻¹ s⁻¹
B13	890 nM	0.287 s⁻¹	320000 M⁻¹ s⁻¹
B14	410 nM	0.228 s⁻¹	560000 M⁻¹ s⁻¹

Molecular target: T2, Human Serum Albumin
Assay: BIAcore SPR
Remark: another data set of the same source

Binder	Ka	Kd	kon	koff
B15	1.51e+08 M⁻¹	6.71 nM	1.14e+06 M⁻¹ s⁻¹	–
B16	5.27e+07 M⁻¹	20.2 nM	469000 M⁻¹ s⁻¹	0.0087 s⁻¹
B17	9.51e+07 M⁻¹	10.7 nM	790000 M⁻¹ s⁻¹	–
B18	1.37e+08 M⁻¹	7.39 nM	1.17e+06 M⁻¹ s⁻¹	–

Molecular target: T3, Cynomolgus monkey Serum Albumin
Assay: BIAcore SPR
Remark: another data set of the same source

Binder	Ka	Kd	kon
B16	1.01e+08 M⁻¹	9.99 nM	747000 M⁻¹ s⁻¹
B17	1.08e+08 M⁻¹	13.4 nM	833000 M⁻¹ s⁻¹
B18	2.47e+08 M⁻¹	4.21 nM	1.37e+06 M⁻¹ s⁻¹

Molecular target: T1, mouse serum albumin
Assay: Albumin KD column of the PK table (repeats Table 6)

Binder	Kd
B11	130 nM

Molecular target: T3, Cynomolgus monkey Serum Albumin
Assay: as above

Binder	Kd
B12	9 nM

Molecular target: T4, Rat Serum Albumin
Assay: as above

Binder	Kd
B11	200 nM
B12	4 nM
B13	890 nM
B14	410 nM

Molecular target: T4, Rat Serum Albumin
Assay: BIAcore SPR
Remark: another data set of the same source

Binder	Ka	Kd	kon
B15	5.96e+07 M⁻¹	16.9 nM	846000 M⁻¹ s⁻¹
B16	1.91e+07 M⁻¹	53.6 nM	376000 M⁻¹ s⁻¹
B17	2.8e+07 M⁻¹	37.8 nM	560000 M⁻¹ s⁻¹
B18	5.77e+07 M⁻¹	17.6 nM	830000 M⁻¹ s⁻¹
